According to publication PMC6776472 (Biochemistry, 2018):
Values belong to the binder of their own block, whether it stands above or below them. No end group written: not given here.

Experiments:
ERK2 = ERK2 (UniProt P28482 1-360); assay: fluorescence polarisation
[1] = molecular target: p38α (unphosphorylated, recombinant) (UniProt Q16539 1-360); assay: fluorescence polarisation
JNK1 = JNK1 (UniProt P45983 1-427); assay: ITC
Chain of JNK1 (P45983 whole entry): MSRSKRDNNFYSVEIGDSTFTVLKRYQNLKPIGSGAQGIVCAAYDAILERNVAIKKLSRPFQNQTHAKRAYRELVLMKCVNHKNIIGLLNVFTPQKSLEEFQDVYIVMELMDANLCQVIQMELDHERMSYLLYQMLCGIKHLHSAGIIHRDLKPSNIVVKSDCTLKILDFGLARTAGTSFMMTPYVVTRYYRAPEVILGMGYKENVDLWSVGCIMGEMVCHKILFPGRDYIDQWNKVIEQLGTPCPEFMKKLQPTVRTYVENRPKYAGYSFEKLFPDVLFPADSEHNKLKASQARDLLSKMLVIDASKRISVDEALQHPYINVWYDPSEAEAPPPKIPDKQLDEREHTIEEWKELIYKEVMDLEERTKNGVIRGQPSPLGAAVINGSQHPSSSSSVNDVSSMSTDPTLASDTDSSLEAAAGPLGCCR

Chain of p38α (unphosphorylated, recombinant) (Q16539 whole entry): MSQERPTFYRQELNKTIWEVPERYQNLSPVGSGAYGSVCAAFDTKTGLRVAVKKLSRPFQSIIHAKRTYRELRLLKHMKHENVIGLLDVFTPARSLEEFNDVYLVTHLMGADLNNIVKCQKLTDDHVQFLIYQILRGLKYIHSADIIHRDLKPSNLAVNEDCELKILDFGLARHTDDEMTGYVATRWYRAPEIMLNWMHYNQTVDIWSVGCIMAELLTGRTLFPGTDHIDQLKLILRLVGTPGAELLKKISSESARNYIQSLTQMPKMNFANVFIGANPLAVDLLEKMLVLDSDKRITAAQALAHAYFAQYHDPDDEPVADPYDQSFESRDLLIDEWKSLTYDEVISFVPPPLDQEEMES
Chain of ERK2 (P28482 whole entry): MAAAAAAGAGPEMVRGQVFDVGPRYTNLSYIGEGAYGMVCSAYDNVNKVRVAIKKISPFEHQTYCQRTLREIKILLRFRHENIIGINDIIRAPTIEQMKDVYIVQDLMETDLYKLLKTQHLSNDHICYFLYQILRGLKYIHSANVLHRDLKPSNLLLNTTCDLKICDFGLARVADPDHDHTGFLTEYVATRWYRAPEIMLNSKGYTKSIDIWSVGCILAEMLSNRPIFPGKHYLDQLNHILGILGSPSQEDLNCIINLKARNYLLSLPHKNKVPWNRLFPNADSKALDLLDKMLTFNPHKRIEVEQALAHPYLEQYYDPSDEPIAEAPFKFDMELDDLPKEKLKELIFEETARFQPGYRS

binding result (ERK2): binds
Kd [1]: 3.9 µM
Binder: {TAMRA}-GKKRNPGLKIPK [MKK6-derived 12-residue peptide, TAMRA-labeled]

Kd (JNK1): > 100 µM
B1: pepMKK6mb (designed binder)
chain: RDLEVVAATPTSLLISWDAPAVTVRYYRITYGETGGNSPVQEFTVPGSKSTATISGLKPGVDYTITVYAVTGRPGLKIPSKPISINYRTEI
